From publication PMC7538161, “Breakage of the oligomeric CaMKII hub by the regulatory segment of the kinase” (eLife, 2020) come the findings set out here.

First the molecules themselves.
B6: human CaMKII-α hub domain (domain or fragment, UniProt Q9UQM7 345-475, looked up)
chain: VRKQEIIKVTEQLIEAISNGDFESYTKMCDPGMTAFEPEALGNLVEGLDFHRFYFENLWSRNSKPVHTTILNPHIHLMGDESACIAYIRITQYLDAGGIPRTAQSEETRVWHRRDGKWQIVHFHRSGAPSV
notes: Ca2+/calmodulin-dependent protein kinase II alpha (CaMKII-α), human, hub domain, residues 345-475 of Uniprot Q9UQM7; Forms dodecameric and tetradecameric assemblies; also called the hub; hub assembly; source: E. coli BL21, purified (Ni-NTA, PreScission cleavage, Ni-NTA flow-through, Superose 6 gel filtration); not shown: His6, N-terminal, cleaved; copies: 12 or 14

The target of series [1] is B6. The experiment in a line: native MS; hub 120 µM (subunits) mixed with 1 to 100 µM phosphorylated peptide, ~400 mM ammonium acetate, injected at once without incubation; sample cone voltage 50 V. The note with it: both partners purified.
Series [2] has as its target B6. In words: native MS; hub 120 µM (subunits) mixed with 1 µM to 1 mM unphosphorylated peptide, ~400 mM ammonium acetate, incubated 5 min at room temperature; nanoelectrospray, sample cone voltage 50 V, source 80°C. The note with it: both partners purified.
Series [3] deals with the molecule itself. The experiment in a line: native MS; hub alone, 120 µM subunit concentration in 400 mM ammonium acetate, 5 min at room temperature; nanoelectrospray, sample cone voltage 50 V, source 80°C.

Values joined by “and” are separate entries in the source; they are usually repeats but may differ in a detail not shown here. Identical values can stand only once. Non-standard residues stand in square brackets, D forms with d. No end group written: not given here. pT = C[C@@H](OP(=O)(O)O)[C@H](N)C(=O)O

B1: Peptide B^phos (peptide)
peptide: AIL[pT]TMLATRNFSGGKSGGNKK
modifications: also: phosphothreonine at Thr 305
notes: also called phosphorylated Peptide B; source: bought: Elim Biopharm (lyophilized powder)
Turning to B1, the binding result in series [1] is “binds”.

B2: Peptide G (peptide)
peptide: RSTVASCMHRQETVDCLKKFNA
notes: also called autonomy site peptide; source: bought: Elim Biopharm (lyophilized powder)
With B2, the binding result in series [2] is on record as “binds”.

B3: Peptide H, CaMKIINTide (peptide)
peptide: KRPPKLGQIGRSKRVVIEDDRIDDVLK
notes: source: bought: Elim Biopharm (lyophilized powder)
As to B3, in series [2], the binding result is on record as “binds”.

B4: Peptide B (peptide)
peptide: AILTTMLATRNFSGGKSGGNKK
notes: as for B3
B4: in series [2], the binding result is “binds”.

B5: Peptide A^phos (peptide)
peptide: LKKFNARRKLKGAIL[pT]TMLA
modifications: also: phosphothreonine at Thr 305
notes: also called phosphorylated Peptide A; source: bought: Elim Biopharm (lyophilized powder)
Take B5: in series [1], the binding result is on record as “binds”.
Regarding B6, the stoichiometry N (usually a count of units in the complex or per binding partner) in series [3] was 12 and 14.

B7: Peptide A (peptide)
peptide: LKKFNARRKLKGAILTTMLA
notes: as for B3
Consider B7, for which, in series [2], the binding result was “binds”.
